Source: PMC5322959

Biological target: His6x-tagged hRNF145 RING protein (human) (UniProt Q96MT1)
Assay: SEC; Superdex 75 10/300 column calibrated with a set of standard proteins; elution volume corresponds to an apparent molecular mass of 39 kDa (predicted weight 18 kD)

stoichiometry N: 2
Substance: His6x-tagged hRNF145 RING protein (from UniProt Q96MT1-1 550-663) (domain or fragment)
